Values quoted from earlier work, collected in paper PMC4543363.
pKd: −log10 of the molar value.

How the values were obtained:
NF-κB p50 (Homo sapiens) = NF-κB p50 (Homo sapiens) (UniProt P19838)
[1] = target: NF-κB dimer (Homo sapiens) (UniProt P19838)

| Substance | pKd (NF-κB p50 (Homo sapiens)) | pKd [1] |
| --- | --- | --- |
| NF-κB p65 (from UniProt Q04206) | 7.00 |  |
| IκBα (from UniProt P25963) |  | > 10.00 |
